Test system: c-Abl (mouse);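 also: 11-residue human phosphosite peptides and single-mutation variants displayed on the E. coli surface, counted by deep sequencing, each peptide's frequency after selection divided by its frequency in the unselected input library; frequency after pTyr selection over input frequency; kinase dosed for 20-30% of maximal phosphorylation in three min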
Assay: phosphorylation enrichment, bacterial display (enrichment ratio); higher = better substrate or ligand; peptides without Tyr show the background
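For SH2 binding enrichment of the phosphorylated peptide, bacterial display in this document: peptide library displayed on the E. coli surface as eCPX fusions, selected cells deep-sequenced, score is each peptide's frequency after selection divided by its frequency in the input.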

Sequence | phosphorylation enrichment
TNYPLYLRSLE [MTM1_Y71_R69P] | 0.668
NDKLRYEVSSP [CDH13_Y66] | 0.692
VNNAVYGIDAM [EIF3J_Y143] | 0.509
DPADRYLTEQF [CDKL5_Y286_C291Y_YF] | 0.733
PLDGEYFTLQI [TP53_Y327] | 1.57
SVVVPYEPPEG [TP53_Y220_V225G] | 0.633
QSSALYEDRFL [ASS1_Y83_YF] | 1.08
LDPMVYMNDKS [PTK2B_Y834] | 0.843
CEHFSYFGMKA [SLC15A2_Y60_R57H_YF] | 0.605
VFLGAYDRFLP [SLC22A5_Y486_YF] | 0.782
SVETPYGSVTF [NDRG2_Y47] | 0.635
ENAGFYFRVSA | 0.831
ENRLDYGSAWA [AR_Y395_P392R] | 0.501
HLITAYRAHGF [PDHA1_Y118] | 0.309
FNNPAYYVLEG [INPPL1_Y986] | 0.767
QRDSSYYWEIE [RAF1_Y340] | 0.744
NYADPYRQLQY [CTNND2_Y503] | 0.687
PSDSGYSFETI [MAP1B_Y1921_YF] | 0.763
TLLPDYEDEEE [ZNF830_Y159_S154T] | 0.846
FRIGPYQPNVP [MATR3_Y784_YF] | 0.631
GGTTLYPGIAD [ACTC1_Y308_M307L] | 0.484
EERNPYFSSAR [MCCC2_Y520_G517R_YF] | 0.624
KPYRVYCDMNT [FGB_Y269] | 0.779
FIAVGYVDDTQ [HLA-A_Y51] | 0.668
FGLQAYTKVKT [ALDH2_Y502_E504K_YF] | 0.799
ELETLYKKAVK [CC2D2A_Y381] | 0.517
MRALTYCDLHK [KCNH2_Y827_V822M] | 0.626
NHQYDYTFHWT [CSNK1A1_Y294_D297H] | 0.7
LAETSYVKVLE [MAGEA1_Y276] | 0.616

Biological target: Grb2 SH2 (UniProt P62993)
Sequence (P62993 whole entry, looked up): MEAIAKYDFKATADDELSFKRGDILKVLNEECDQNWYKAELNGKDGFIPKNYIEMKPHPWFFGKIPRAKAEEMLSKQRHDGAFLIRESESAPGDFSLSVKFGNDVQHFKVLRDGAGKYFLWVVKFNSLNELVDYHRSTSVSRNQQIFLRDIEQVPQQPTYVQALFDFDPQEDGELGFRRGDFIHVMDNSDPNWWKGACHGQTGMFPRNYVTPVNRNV
Assay: SH2 binding enrichment of the phosphorylated peptide, bacterial display (enrichment ratio); higher = better substrate or ligand; peptides without Tyr show the background

Sequence | SH2 binding enrichment
TNYPLYLRSLE [MTM1_Y71_R69P] | 0.96
NDKLRYEVSSP [CDH13_Y66] | 0.711
VNNAVYGIDAM [EIF3J_Y143] | 0.771
DPADRYLTEQF [CDKL5_Y286_C291Y_YF] | 0.889
PLDGEYFTLQI [TP53_Y327] | 0.686
SVVVPYEPPEG [TP53_Y220_V225G] | 1.03
QSSALYEDRFL [ASS1_Y83_YF] | 0.835
LDPMVYMNDKS [PTK2B_Y834] | 2.36
CEHFSYFGMKA [SLC15A2_Y60_R57H_YF] | 0.801
VFLGAYDRFLP [SLC22A5_Y486_YF] | 0.908
SVETPYGSVTF [NDRG2_Y47] | 0.809
ENAGFYFRVSA | 0.646
ENRLDYGSAWA [AR_Y395_P392R] | 0.955
HLITAYRAHGF [PDHA1_Y118] | 0.981
FNNPAYYVLEG [INPPL1_Y986] | 0.992
QRDSSYYWEIE [RAF1_Y340] | 0.762
NYADPYRQLQY [CTNND2_Y503] | 0.892
PSDSGYSFETI [MAP1B_Y1921_YF] | 0.971
TLLPDYEDEEE [ZNF830_Y159_S154T] | 1.06
FRIGPYQPNVP [MATR3_Y784_YF] | 0.844
GGTTLYPGIAD [ACTC1_Y308_M307L] | 0.762
EERNPYFSSAR [MCCC2_Y520_G517R_YF] | 0.859
KPYRVYCDMNT [FGB_Y269] | 1.03
FIAVGYVDDTQ [HLA-A_Y51] | 1.05
FGLQAYTKVKT [ALDH2_Y502_E504K_YF] | 0.744
ELETLYKKAVK [CC2D2A_Y381] | 0.809
MRALTYCDLHK [KCNH2_Y827_V822M] | 0.703
NHQYDYTFHWT [CSNK1A1_Y294_D297H] | 1.15
LAETSYVKVLE [MAGEA1_Y276] | 0.94

Biological target: c-Src SH2
Assay: as above

Sequence | SH2 binding enrichment
TNYPLYLRSLE [MTM1_Y71_R69P] | 0.433
NDKLRYEVSSP [CDH13_Y66] | 0.473
VNNAVYGIDAM [EIF3J_Y143] | 0.507
DPADRYLTEQF [CDKL5_Y286_C291Y_YF] | 0.571
PLDGEYFTLQI [TP53_Y327] | 0.344
SVVVPYEPPEG [TP53_Y220_V225G] | 0.67
QSSALYEDRFL [ASS1_Y83_YF] | 0.65
LDPMVYMNDKS [PTK2B_Y834] | 1.01
CEHFSYFGMKA [SLC15A2_Y60_R57H_YF] | 0.604
VFLGAYDRFLP [SLC22A5_Y486_YF] | 1.06
SVETPYGSVTF [NDRG2_Y47] | 0.427
ENAGFYFRVSA | 0.359
ENRLDYGSAWA [AR_Y395_P392R] | 0.499
HLITAYRAHGF [PDHA1_Y118] | 0.422
FNNPAYYVLEG [INPPL1_Y986] | 3.95
QRDSSYYWEIE [RAF1_Y340] | 10.6
NYADPYRQLQY [CTNND2_Y503] | 1.5
PSDSGYSFETI [MAP1B_Y1921_YF] | 2.13
TLLPDYEDEEE [ZNF830_Y159_S154T] | 0.635
FRIGPYQPNVP [MATR3_Y784_YF] | 0.634
GGTTLYPGIAD [ACTC1_Y308_M307L] | 0.453
EERNPYFSSAR [MCCC2_Y520_G517R_YF] | 0.446
KPYRVYCDMNT [FGB_Y269] | 1.04
FIAVGYVDDTQ [HLA-A_Y51] | 0.625
FGLQAYTKVKT [ALDH2_Y502_E504K_YF] | 1.38
ELETLYKKAVK [CC2D2A_Y381] | 0.458
MRALTYCDLHK [KCNH2_Y827_V822M] | 0.626
NHQYDYTFHWT [CSNK1A1_Y294_D297H] | 2.86
LAETSYVKVLE [MAGEA1_Y276] | 1.69

Biological target: SHP2-C SH2
Assay: as above

Sequence | SH2 binding enrichment
TNYPLYLRSLE [MTM1_Y71_R69P] | 0.862
NDKLRYEVSSP [CDH13_Y66] | 0.567
VNNAVYGIDAM [EIF3J_Y143] | 0.763
DPADRYLTEQF [CDKL5_Y286_C291Y_YF] | 0.618
PLDGEYFTLQI [TP53_Y327] | 0.718
SVVVPYEPPEG [TP53_Y220_V225G] | 0.997
QSSALYEDRFL [ASS1_Y83_YF] | 0.471
LDPMVYMNDKS [PTK2B_Y834] | 0.792
CEHFSYFGMKA [SLC15A2_Y60_R57H_YF] | 0.545
VFLGAYDRFLP [SLC22A5_Y486_YF] | 0.852
SVETPYGSVTF [NDRG2_Y47] | 0.527
ENAGFYFRVSA | 0.738
ENRLDYGSAWA [AR_Y395_P392R] | 0.735
HLITAYRAHGF [PDHA1_Y118] | 0.642
FNNPAYYVLEG [INPPL1_Y986] | 1.12
QRDSSYYWEIE [RAF1_Y340] | 0.797
NYADPYRQLQY [CTNND2_Y503] | 1.12
PSDSGYSFETI [MAP1B_Y1921_YF] | 0.874
TLLPDYEDEEE [ZNF830_Y159_S154T] | 0.815
FRIGPYQPNVP [MATR3_Y784_YF] | 0.754
GGTTLYPGIAD [ACTC1_Y308_M307L] | 0.648
EERNPYFSSAR [MCCC2_Y520_G517R_YF] | 0.789
KPYRVYCDMNT [FGB_Y269] | 0.658
FIAVGYVDDTQ [HLA-A_Y51] | 0.967
FGLQAYTKVKT [ALDH2_Y502_E504K_YF] | 1.65
ELETLYKKAVK [CC2D2A_Y381] | 0.589
MRALTYCDLHK [KCNH2_Y827_V822M] | 0.708
NHQYDYTFHWT [CSNK1A1_Y294_D297H] | 0.938
LAETSYVKVLE [MAGEA1_Y276] | 7

Reference: the supplement of paper PMC10065799, “High-throughput profiling of sequence recognition by tyrosine kinases and SH2 domains using bacterial peptide display” (eLife, 2023)
